Test results: publication PMC12381214, “Multi-state catch bond formed in the Izumo1:Juno complex that initiates human fertilization” (Nature Communications, 2025)
Changes are numbered by the printed parent chain. Names and notes keep the numbering of the source.

How the values were obtained:
Details in all cases: both partners purified
[1] = biological target: T1, human Juno ectodomain, wild type (Juno-His10-SpyTag-LPETGG) (human, glycosylated (sites not given); SpyTag joined by an isopeptide bond to a SpyCatcher polyprotein); assay: flow cytometry-based bead-binding assay; Juno held on 3.75 µm polystyrene beads through the ybbR AFM-handle; Izumo1 labelled with SpyCatcher-GFP, 5-fold dilution series of 7 dilutions from 100x the expected KD, 3 h, 0.1% tween 20 in TBS-G (20 mM Tris-HCl, 300 mM NaCl, 10% glycerol, pH 8.0); Hill equation fitted
T1 construct: Juno, human, ectodomain (ECD), UniProt A6ND01; the stretch between the HBM signal peptide and His10 in the printed construct; the printed construct has a D between the signal's ...YIYA and G20 that may stay on the mature protein; also called Folr4; Izumo1r; source: Sf9 (ExpiSF) cells, baculovirus, secreted, purified (Ni resin, SEC); not shown: HBM secretion signal peptide, N-terminal, cleaved; …

[2] = biological target: T2, human Juno ectodomain H177Q, infertility-associated variant (JunoH177Q-His10-SpyTag-LPETGG) (human, H177Q (stands in the printed letters), glycosylated (sites not given); SpyTag joined by an isopeptide bond to a SpyCatcher polyprotein); assay: as above
T2 construct: Juno, human, ectodomain (ECD), UniProt A6ND01, natural variant H177Q found in patients; also called HBM-JunoH177Q-His10-SpyTag-LPETGG; source: Sf9 (ExpiSF) cells, baculovirus, secreted, purified (Ni resin, SEC); not shown: HBM secretion signal peptide, N-terminal, cleaved; His10, C-terminal, kept; SpyTag, C-terminal, kept; LPETGG sortase motif, C-terminal, kept

[3] = biological target: T1, human Juno ectodomain, wild type …; assay: AFM single-molecule force spectroscopy (constant speed); Izumo1 on the cantilever and Juno on the cover glass, each covalently held by its C-terminus through a ddFLN4-ELP-ybbR handle; contact 0.2 s, retraction at 800, 1600, 3200, 6400 nm·s^−1; PBS pH 7.4

T1 sequence (chain, as listed by the source): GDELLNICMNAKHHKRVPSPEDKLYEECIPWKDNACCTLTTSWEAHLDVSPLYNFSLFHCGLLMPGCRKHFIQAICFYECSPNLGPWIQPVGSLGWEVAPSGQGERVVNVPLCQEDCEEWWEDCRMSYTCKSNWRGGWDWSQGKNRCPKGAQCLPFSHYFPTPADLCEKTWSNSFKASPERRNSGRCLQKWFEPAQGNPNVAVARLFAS
T2 sequence (chain, as listed by the source with the stated changes): as the sequence (chain, as listed by the source) above, with H158Q counted along it

B1: human Izumo1 ectodomain, wild type (Izumo1-His10-SpyTag-LPETGG) (domain or fragment)
chain: CVICDPSVVLALKSLEKDYLPGHLDAKHHKAMMERVENAVKDFQELSLNEDAYMGVVDEATLQKGSWSLLKDLKRITDSDVKGDLFVKELFWMLHLQKETFATYVARFQKEAYCPNKCGVMLQTLIWCKNCKKEVHACRKSYDCGERNVEVPQMEDMILDCELNWHQASEGLTDYSFYRVWGNNTETLVSKGKEATLTKPMVGPEDAGSYRCELGSVNSSPATIINFHVTVLP
modifications: glycosylated (sites not given); SpyTag joined by an isopeptide bond to a SpyCatcher polyprotein
notes: Izumo1, human, ectodomain (ECD), UniProt Q8IYV9; the stretch between the HEM signal peptide and His10 in the printed construct; also called HEM-Izumo1-His10-SpyTag-LPETGG; Izumo1-GFP; source: Sf9 (ExpiSF) cells, baculovirus, secreted, purified (Ni resin, SEC); not shown: HEM secretion signal peptide, N-terminal, cleaved; His10, C-terminal, kept; SpyTag, C-terminal, kept; LPETGG sortase motif, …
Kd [1]: 45 nM
Kd [2]: 64 nM

B2: human Izumo1 ectodomain E71A (Izumo1E71A-His10-SpyTag-LPETGG) (domain or fragment)
chain: B1 chain with E50A
modifications: glycosylated (sites not given); SpyTag joined by an isopeptide bond to a SpyCatcher polyprotein
notes: Izumo1, human, ectodomain (ECD), UniProt Q8IYV9, with E71A; also called HEM-Izumo1E71A-His10-SpyTag-LPETGG; source: Sf9 (ExpiSF) cells, baculovirus, secreted, purified (Ni resin, SEC); not shown: HEM secretion signal peptide, N-terminal, cleaved; His10, C-terminal, kept; SpyTag, C-terminal, kept; LPETGG sortase motif, C-terminal, kept
binding result [3]: binds

B3: human Izumo1 ectodomain H157A (Izumo1H157A-His10-SpyTag-LPETGG) (domain or fragment)
chain: B1 chain with H136A
modifications: glycosylated (sites not given); SpyTag joined by an isopeptide bond to a SpyCatcher polyprotein
notes: Izumo1, human, ectodomain (ECD), UniProt Q8IYV9, with H157A; also called HEM-Izumo1H157A-His10-SpyTag-LPETGG; source: Sf9 (ExpiSF) cells, baculovirus, secreted, purified (Ni resin, SEC); not shown: HEM secretion signal peptide, N-terminal, cleaved; His10, C-terminal, kept; SpyTag, C-terminal, kept; LPETGG sortase motif, C-terminal, kept
binding result [3]: binds

B4: human Izumo1 ectodomain K150A (Izumo1K150A-His10-SpyTag-LPETGG) (domain or fragment)
chain: B1 chain with K129A
modifications: glycosylated (sites not given); SpyTag joined by an isopeptide bond to a SpyCatcher polyprotein
notes: Izumo1, human, ectodomain (ECD), UniProt Q8IYV9, with K150A; also called HEM-Izumo1K150A-His10-SpyTag-LPETGG; source: Sf9 (ExpiSF) cells, baculovirus, secreted, purified (Ni resin, SEC); not shown: HEM secretion signal peptide, N-terminal, cleaved; His10, C-terminal, kept; SpyTag, C-terminal, kept; LPETGG sortase motif, C-terminal, kept
Kd [1]: 110 nM

B5: human Izumo1 ectodomain R160A (Izumo1R160A-His10-SpyTag-LPETGG) (domain or fragment)
chain: B1 chain with R139A
modifications: glycosylated (sites not given); SpyTag joined by an isopeptide bond to a SpyCatcher polyprotein
notes: Izumo1, human, ectodomain (ECD), UniProt Q8IYV9, with R160A; also called HEM-Izumo1R160A-His10-SpyTag-LPETGG; source: Sf9 (ExpiSF) cells, baculovirus, secreted, purified (Ni resin, SEC); not shown: HEM secretion signal peptide, N-terminal, cleaved; His10, C-terminal, kept; SpyTag, C-terminal, kept; LPETGG sortase motif, C-terminal, kept
binding result [3]: binds
